Assay results from patent publication US20220267379A1 (published 2022).
Like-named read-outs stand apart in the source and are kept apart here. Positions of bridges follow the written chain, without caps; N, C: chain ends. Non-standard residues stand in square brackets, D forms with d. Primed or numbered codes have the meaning given here. Chains are numbered I, II in the order given. No end group written: not given here. *: point of attachment. Palmitoyl = CCCCCCCCCCCCCCCC(=O)*; PEG2″ = not defined here

Assays:
FXIIa (Factor XIIa) = biological target: T1, FXIIa (Factor XIIa) (human, UniProt P00748 373-615)
T1 chain: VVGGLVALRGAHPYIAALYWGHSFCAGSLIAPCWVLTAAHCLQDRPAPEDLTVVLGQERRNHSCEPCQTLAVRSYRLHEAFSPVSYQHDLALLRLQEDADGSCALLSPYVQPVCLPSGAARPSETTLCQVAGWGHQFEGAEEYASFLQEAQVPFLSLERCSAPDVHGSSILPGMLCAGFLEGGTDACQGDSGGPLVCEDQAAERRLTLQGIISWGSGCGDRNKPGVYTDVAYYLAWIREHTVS

trypsin = trypsin (human); assay: enzyme inhibition
[1] = biological target: human Kallikrein-related peptidase 5 (hKLK5) (human, UniProt Q9Y337 67-293); assay: enzyme inhibition
[2] = biological target: T2, mouse serum albumin (MSA) (mouse, UniProt P07724 25-608); assay: fluorescence polarization
plasmin = assay: enzyme inhibition
uPA = assay: enzyme inhibition
tPA = assay: enzyme inhibition
thrombin = assay: enzyme inhibition
PK = assay: enzyme inhibition
[3] = biological target: human serum albumin (HSA) (human, UniProt P02768 25-609); assay: fluorescence polarization; human serum dilution
[4] = biological target: T2, mouse serum albumin (MSA)

T2 sequence (P07724 25-608): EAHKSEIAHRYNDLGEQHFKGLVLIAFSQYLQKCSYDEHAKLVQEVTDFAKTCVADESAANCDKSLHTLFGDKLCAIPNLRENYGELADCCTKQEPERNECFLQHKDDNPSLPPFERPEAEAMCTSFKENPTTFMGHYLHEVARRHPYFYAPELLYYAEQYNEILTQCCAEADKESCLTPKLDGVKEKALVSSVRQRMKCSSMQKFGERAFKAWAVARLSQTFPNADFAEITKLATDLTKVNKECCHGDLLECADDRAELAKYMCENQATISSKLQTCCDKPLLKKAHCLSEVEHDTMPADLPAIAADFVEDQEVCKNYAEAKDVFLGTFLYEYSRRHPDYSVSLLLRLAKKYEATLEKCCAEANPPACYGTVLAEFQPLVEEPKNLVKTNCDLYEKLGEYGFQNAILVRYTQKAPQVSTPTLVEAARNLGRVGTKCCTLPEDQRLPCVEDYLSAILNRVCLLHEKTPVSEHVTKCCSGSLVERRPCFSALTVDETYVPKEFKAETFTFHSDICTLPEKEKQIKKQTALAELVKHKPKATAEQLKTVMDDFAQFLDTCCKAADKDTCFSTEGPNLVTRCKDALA
human Kallikrein-related peptidase 5 (hKLK5), sequence (Q9Y337 67-293): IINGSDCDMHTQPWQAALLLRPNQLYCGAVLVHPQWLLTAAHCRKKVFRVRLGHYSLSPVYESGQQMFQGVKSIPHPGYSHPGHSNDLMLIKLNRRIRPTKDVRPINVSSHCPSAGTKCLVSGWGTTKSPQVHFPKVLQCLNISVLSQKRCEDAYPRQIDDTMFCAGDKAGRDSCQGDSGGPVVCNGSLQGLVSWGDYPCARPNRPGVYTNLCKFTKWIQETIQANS

GCTRQYPC (linker 2-8 via 1,3‑dibromoacetone) [peptide 035 (lead KLK5 inhibitor)]
Ki (FXIIa (Factor XIIa)): 43 µM | Ki (trypsin): 60 µM | Ki [1]: 0.01 µM

B1: SSSKSSS-tag (peptide)
peptide: SSSKSSS
modifications: not fully specified (residue 4, N-terminus); also: fluorescein as in the albumin tag
Kd [2]: 10.1 µM

GCTRQYPC (linker 2-8 via 1,3‑dibromoacetone) [peptide 035]
Ki (plasmin): > 100 µM | Ki (uPA): > 100 µM | Ki (tPA): > 100 µM | Ki (thrombin): > 100 µM | Ki (PK): > 100 µM

B2: N-terminal albumin tag conjugate of KLK5 inhibitor 035 (peptide)
peptide 1: EYEK(Palmitoyl)EYE[PEG2″]
peptide 2: GCTRQYPC
modifications: bridge II:2-II:8; not fully specified (N-terminus, bridges); also: tag C-terminus joined through PEG2 to inhibitor N-terminus (one linear molecule)
Kd [3]: 0.118 µM

B3: KLK5 inhibitor 035-tag (C-terminal albumin tag conjugate of 035) (peptide)
peptide 1: GCTRQYPCGKG
peptide 2: EYEK(Palmitoyl)EYE
modifications: bridge I:2-I:8; not fully specified (N-terminus, C-terminus, bridges); also: albumin tag (chain 2) joined via PEG2 to side chain of Lys10 of chain 1, tag end used not given here, N-terminal fluorescein via PEG2, chain not given here
Kd [2]: 7 µM

EYEK(Palmitoyl)EYE-fluorescein [albumin tag with fluorescein at the C-terminus (tag-F)]
Kd [4]: 7.9 µM

B4: N-terminal albumin tag conjugate of KLK7 inhibitor 096 (peptide)
peptide 1: EYEK(Palmitoyl)EYE[PEG2″]
peptide 2: PCLYLARCS
modifications: bridge II:2-II:8; not fully specified (N-terminus, bridges); also: tag C-terminus joined through PEG2 to inhibitor N-terminus (one linear molecule)
Kd [3]: 0.168 µM
